Article PMC7377350

Target: T1, CREB B-ZIP domain (UniProt P16220 269-327)
T1 sequence: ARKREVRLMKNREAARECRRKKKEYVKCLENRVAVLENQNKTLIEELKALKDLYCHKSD
Assay: EMSA

B1: CREB (CRE) 28-mer (dsDNA)
DNA 1: GTCAGTCAGATGACGTCATATCGGTCAG
DNA 2: CTGACCGATATGACGTCATCTGACTGAC
B1: binds.
